# From patent publication US20260049138A1 (Chugai, published 2026)
# Changes are numbered by the printed parent chain. Names may count otherwise.
# B1: CE115HA000 D73E one-arm antibody (antibody, human IgG1, kappa, L234A L235A, N297A, name in Kabat numbering)
# heavy: QVQLVESGGGVVQPGRSLRLSCAASGFTFSNAWMHWVRQAPGKGLEWVAQIKAKSNNYATYYAESVKGRFTISRDESKNSLYLQMNSLKTEDTAVYYCRYVHYGAYYGVDAWGQGTTVTVSSASTKGPSVFPLAPSSKSTSGGTAALGCLVKDYFPEPVTVSWNSGALTSGVHTFPAVLQSSGLYSLSSVVTVPSSSLGTQTYICNVNHKPSNTKVDKKVEPKSCDKTHTCPPCPAPEAAGGPSVFLFPPKPKDTLMISRTPEVTCVVVDVSHEDPEVKFNWYVDGVEVHNAKTKPREEQYASTYRVVSVLTVLHQDWLNGKEYKCKVSNKALPAPIEKTISKAKGQPREPQVYTLPPSRCELTKNQVSLSCAVKGFYPSDIAVEWESNGQPENNYKTTPPVLDSDGSFFLVSKLTVDKSRWQQGNVFSCSVMHEALHNHYTQKSLSLSPDYKDDDDK
# chain: EPKSSDKTHTCPPCPAPELLGGPSVFLFPPKPKDTLMISRTPEVTCVVVDVSHEDPEVKFNWYVDGVEVHNAKTKPREEQYNSTYRVVSVLTVLHQDWLNGKEYKCKVSNKALPAPIEKTISKAKGQPREPQVCTLPPSRDELTKNQVSLWCLVKGFYPSDIAVEWESNGQPENNYKTTPPVLDSDGSFFLYSKLTVDKSRWQQGNVFSCSVMHEALHNRYTQKSLSLSP
# light: DIVMTQSPLSLPVTPGEPASISCRSSQSLVHSNRNTYLHWYQQKPGQAPRLLIYKVSNRFSGVPDRFSGSGSGTDFTLKISRVEAEDVGVYYCGQGTQVPYTFGQGTKLEIKRTVAAPSVFIFPPSDEQLKSGTASVVCLLNNFYPREAKVQWKVDNALQSGNSQESVTEQDSKDSTYSLSSTLTLSKADYEKHKVYACEVTHQGLSSPVTKSFNRGEC
# B2: CE115HA000 D101H one-arm antibody (antibody, human IgG1, kappa, L234A L235A, N297A, name in Kabat numbering)
# heavy: B1 heavy with E76D, D110H
# chain: B1 chain
# light: B1 light
# B3: CE115HA000 D73R one-arm antibody (antibody, human IgG1, kappa, L234A L235A, N297A, name in Kabat numbering)
# heavy: B1 heavy with E76R
# chain: B1 chain
# light: B1 light
# B4: CE115HA000 D101G one-arm antibody (antibody, human IgG1, kappa, L234A L235A, N297A, name in Kabat numbering)
# heavy: B1 heavy with E76D, D110G
# chain: B1 chain
# light: B1 light
# B5: CE115HA000 D101F one-arm antibody (antibody, human IgG1, kappa, L234A L235A, N297A, name in Kabat numbering)
# heavy: B1 heavy with E76D, D110F
# chain: B1 chain
# light: B1 light
# B6: CE115HA000 D101A one-arm antibody (antibody, human IgG1, kappa, L234A L235A, N297A, name in Kabat numbering)
# heavy: B1 heavy with E76D, D110A
# chain: B1 chain
# light: B1 light
# B7: CE115HA000 D73T one-arm antibody (antibody, human IgG1, kappa, L234A L235A, N297A, name in Kabat numbering)
# heavy: B1 heavy with E76T
# chain: B1 chain
# light: B1 light
# B8: CE115HA000 D73N one-arm antibody (antibody, human IgG1, kappa, L234A L235A, N297A, name in Kabat numbering)
# heavy: B1 heavy with E76N
# chain: B1 chain
# light: B1 light
# B9: CE115HA000 D73G one-arm antibody (antibody, human IgG1, kappa, L234A L235A, N297A, name in Kabat numbering)
# heavy: B1 heavy with E76G
# chain: B1 chain
# light: B1 light
# B10: CE115HA000 D73K one-arm antibody (antibody, human IgG1, kappa, L234A L235A, N297A, name in Kabat numbering)
# heavy: B1 heavy with E76K
# chain: B1 chain
# light: B1 light
# Target: T1, CD3ε homodimer protein (human, UniProt P07766 23-126, limits assumed, sulfo-tag or biotin label in the ECL assays; amine-coupled to the chip in SPR)
# T1 construct: also called human CD3ε homodimer protein; CD3 (CD3ε)
# T1 sequence (P07766 23-126 limits assumed): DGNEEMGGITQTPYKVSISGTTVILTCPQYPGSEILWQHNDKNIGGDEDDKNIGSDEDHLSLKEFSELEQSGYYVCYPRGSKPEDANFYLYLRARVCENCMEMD
# Experiment: SPR Biacore T200; CD3ε homodimer on CM4 chip;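 further: Single-residue variant antibodies injected as analyte over CD3ε homodimer immobilized by amine coupling, run at 25 °C in HBS-EP+ buffer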
binder,measurement,value
B1,ratio of amounts bound Z=Y/X (altered form / CE115HA000),0.73
B2,ratio of amounts bound Z=Y/X (altered form / CE115HA000),1.21
B3,ratio of amounts bound Z=Y/X (altered form / CE115HA000),1.04
B4,ratio of amounts bound Z=Y/X (altered form / CE115HA000),1.38
B5,ratio of amounts bound Z=Y/X (altered form / CE115HA000),0.75
B6,ratio of amounts bound Z=Y/X (altered form / CE115HA000),1.26
B7,ratio of amounts bound Z=Y/X (altered form / CE115HA000),0.63
B8,ratio of amounts bound Z=Y/X (altered form / CE115HA000),0.94
B9,ratio of amounts bound Z=Y/X (altered form / CE115HA000),1.07
B10,ratio of amounts bound Z=Y/X (altered form / CE115HA000),0.87
